T1: PBF (prolamin-box binding factor) (Zea mays, UniProt O24463 1-328)
T1 sequence: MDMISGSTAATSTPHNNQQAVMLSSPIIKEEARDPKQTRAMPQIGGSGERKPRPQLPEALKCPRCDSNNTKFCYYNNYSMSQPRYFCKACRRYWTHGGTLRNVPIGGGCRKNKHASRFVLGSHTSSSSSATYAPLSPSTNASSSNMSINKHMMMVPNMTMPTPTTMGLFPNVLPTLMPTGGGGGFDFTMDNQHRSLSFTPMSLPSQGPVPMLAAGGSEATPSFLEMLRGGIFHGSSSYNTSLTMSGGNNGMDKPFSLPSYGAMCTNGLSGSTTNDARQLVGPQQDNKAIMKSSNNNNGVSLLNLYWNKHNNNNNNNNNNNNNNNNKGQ

B1: z1A O2-like box (dsDNA)
DNA 1: ATCAAGTTTGTCTTGCTTACGTATAAATTATAACCCAACA
DNA 2: TGTTGGGTTATAATTTATACGTAAGCAAGACAAACTTGAT
B2: z1B-P3 (dsDNA)
DNA 1: AACTCAATCTACATAAGCACAAGGTCTAACATGTGTATAA
DNA 2: TTATACACATGTTAGACCTTGTGCTTATGTAGATTGAGTT
B3: z1B-P2 (dsDNA)
DNA 1: CAAAGCCAACTAGATACCACATCATCTCTAGCTTATCTTA
DNA 2: TAAGATAAGCTAGAGATGATGTGGTATCTAGTTGGCTTTG
B4: z1C O2-box (dsDNA)
DNA 1: GAGATCTTGCATGTCATTCCACGTAGATAAAAAGAATGCATATATA
DNA 2: TATATATGCATTCTTTTTATCTACGTGGAATGACATGCAAGATCTC
B5: z1D-P1 (dsDNA)
DNA 1: TTTTGTGCAAATTGTTTTGTCGACATATAAAGTGTAAGATAAGAAA
DNA 2: TTTCTTATCTTACACTTTATATGTCGACAAAACAATTTGCACAAAA
B6: z1A P box (dsDNA)
DNA 1: GGCTATCGTTACACATGTGTAAAGGTATTGCATCACACCATT
DNA 2: AATGGTGTGATGCAATACCTTTACACATGTGTAACGATAGCC
B7: z1C P-box (dsDNA)
DNA 1: TCATGTTAATGTTGTCACATGTGTAAAGGTGAAGAGATCTTGCATGT
DNA 2: ACATGCAAGATCTCTTCACCTTTACACATGTGACAACATTAACATGA

Biological target: OHP1 (Zea mays, UniProt Q03462 1-405)
Assay: EMSA

Binding result, binds:
B1
B2
B3
B4
B5

Biological target: T1, PBF (prolamin-box binding factor)
Assay: EMSA

Binding result, binds:
B6
B7
